Test results reported in patent publication US20180296632A1 (DIACCURATE, published 2018).
[ ]: non-standard residue; d: D form. 2Nal = N[C@@H](Cc1ccc2ccccc2c1)C(=O)O

Target: Recombinant PLA2GIB enzyme (sPLA2GIB produced in E. coli) (UniProt P04054 23-148)
Experiment: cell-based or functional assay

Sequence of Recombinant PLA2GIB enzyme (sPLA2GIB produced in E. coli) (P04054 23-148 limits assumed): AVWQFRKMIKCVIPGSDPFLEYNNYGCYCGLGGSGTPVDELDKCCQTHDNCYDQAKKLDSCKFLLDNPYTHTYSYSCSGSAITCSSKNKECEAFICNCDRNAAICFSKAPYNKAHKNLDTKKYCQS

cyclo([2Nal]LS[2Nal]R) [Peptide I (cyclic(2-NaphthylAla-Leu-Ser-2-NaphthylAla-Arg))]
IC50 of inhibition of PLA2GIB activity in the bioassay (inhibition of IL-7-induced nuclear translocation of phospho STAT5 in CD4 T cells, STED microscopy): ~4.9 µM
